Assay results reported in paper PMC12710124, “Pleomorphism in Wild-Type and Engineered PP7 Virus-Like Particles” (Small (Weinheim an der Bergstrasse, Germany), 2025).
“And” between values parts separate entries of the source, which are not always exact repeats. Equal entries are not always repeated. Where two headings read alike, the source gives them in different places.

B1: PP7 coat protein (wild-type, monomeric) (natural protein)
chain: MSKTIVLSVGEATRTLTEIQSTADRQIFEEKVGPLVGRLRLTASLRQNGAKTAYRVNLKLDQADVVDCSTSVCGELPKVRYTQVWSHDVTIVANSTEASRKSLYDLTKSLVATSQVEDLVVNLVPLGR
notes: Self-assembles in the expression host into VLPs; also called PP7 CP; PP7 capsid protein; source: bacterial expression host (E. coli), recombinantly expressed, purified as VLPs

Key:
Assay in all cases: cryo-EM structure; 3D reconstruction of purified VLPs self-assembled in the bacterial expression host; closed cages (T = 3, T = 4, D5, D5E, C2, C3) and tubes
[1] = molecular target: PP7-AY-PP7, PP7 coat protein dimer with AY linker (Pseudomonas phage PP7)
[2] = molecular target: PP7-AY-PP7, PP7 coat protein dimer with AY linker (Pseudomonas phage PP7); remark: listed apart in the source
[3] = molecular target: the molecule itself

Row | Molecule | stoichiometry N [1] | stoichiometry N [2] | stoichiometry N [3]
1 | PP7-AY-PP7, PP7 coat protein dimer with AY linker | 87 copies | 102 copies | –
2 | B1 | – | – | 150 coat proteins and 174 copies and 204 copies
